Here are results for 2 molecules from patent US20200109211A1 (ELSALYS BIOTECH, published 2020).

The target of test [1] is T1, recombinant human CD160 protein, soluble form, with a C-terminal tag of 6 histidine residues (R&D SYSTEMS) (human, UniProt O95971 27-159, limits assumed, biotinylated with EZ-Link sulfo-NHS-LC-biotin for BLI and ELISA; not biotinylated when immobilised on the CM5 chip for SPR).
T1 construct: domain: soluble form; Bought protein; also called hCD160-his; biotinylated CD160
T1 sequence: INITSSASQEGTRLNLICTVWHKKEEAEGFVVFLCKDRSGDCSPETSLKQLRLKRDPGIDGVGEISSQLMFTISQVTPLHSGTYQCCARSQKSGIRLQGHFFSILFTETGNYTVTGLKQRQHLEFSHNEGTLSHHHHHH
Kind of test: BLI. (Biolayer interferometry detects binding as a change in optical thickness at a sensor tip.)

Test [2] has as its target T1, recombinant human CD160 protein, …. Nature of the test: BLI (repeats Table 7).
Test [3] concerns the target T2, human CD160 (CD160 GPI isoform) on cells (human, UniProt O95971 25-159, GPI anchor).
T2 construct: whole, on cells; Used for all cells said to carry human CD160: transfected CHO-S and E300 cells and cells that carry it naturally (YT2C2, blood NK, CD8+ T, T CD4, CLL cells); also called hCD160; CHO-S-hCD160 (clone 2G10)
T2 sequence (looked up): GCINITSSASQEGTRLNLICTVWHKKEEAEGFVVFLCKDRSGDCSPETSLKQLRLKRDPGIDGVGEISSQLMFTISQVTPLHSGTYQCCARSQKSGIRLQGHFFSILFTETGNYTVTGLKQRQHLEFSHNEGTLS
Nature of the test: flow cytometry on CHO-hCD160 transfectants. The protocol: The binding capacity of the anti-CD160 H7 antibodies and of the variants (D12 and A09) thereof in the IgG4 and IgG1 format and in the IgG1 E345K format was evaluated during the labelling of surface CD160 expressed in a recombinant line CHO-S-hCD160 (clone 2G10) in comparison with non-transfected CHO-S cells, by measuring the median fluorescence index (MFI) (see FIG. 1). For this, 5×10⁺⁵ 2G10 (CHO-S-CD160) and non-transfected CHO-S cells were labelled with 2 μg of each of these antibodies and also with the appropriate control isotypes. In FIG. 1, all the anti-CD160 tested (regardless of the isotype or the IgG format or the variant) specifically recognize human CD160 expressed recombinantly by the CHO-S cells.
In FIG. 1B, the IgG4 variants bind more efficiently to the CHO-hCD160 transfectants than H7 (which results in a median fluorescence increased by a factor of 2 compared with H7 IgG4 ELB01101 or with H7 IgG4 H310A-H435Q ELB01102), this being even in the presence of the H310A-H435Q mutations.
In general terms: Flow cytometry measures light scatter and fluorescence of single cells or particles in a stream.

In test [4] the target is T1, recombinant human CD160 protein, …. Nature of the test: SPR (Biacore), design close to Example 2.
Test [5] has the same target. Kind of test: BLI, biotinylated CD160 at 10 nM on streptavidin sensor, antibody 3.13-100 nM. As to the method: The dissociation constants and the association (kₒₙ) and dissociation (kdis) rate constants for each antibody were calculated by applying a 1:1 interaction model, with overall mathematical modelling of curves (fit) (Rmax bound by the sensor) on the ForteBio 9.0 data analysis software.

Test [6] has as its target T2, human CD160 (CD160 GPI isoform) on cells. Nature of the test: flow cytometry, percentage of labelled YT2C2 NK cells, antibody 0.39-50 nM; the text means better binding. As to the method:
(§1) The binding capacity of the anti-CD160 H7 antibody and of the H7 D12 variant in the IgG4, Fab and Fab-linker Fab format was evaluated during the labelling of surface CD160 expressed naturally on a clone of NK cell line (YT2C2), by measuring the percentage of cell labelled=percentage of binding (see FIG. 1C). For this, 2×10⁺⁵ YT2C2 cells were labelled with increasing concentration of antibodies (from 50 nM to 0.39 nM) and also with the appropriate control isotype. […] In FIG. 1C, IgG4 variants ELB01103 and ELB01104 bind more efficiently to the YT2C2 cells than the H7 IgG4 ELB01101 (which results in a EC₅₀ increased by a factor of 10 compared with H7 IgG4). This is also true for the Fab-linker-Fab format ELB01132. By contrast Fab format ELB01122 bind less efficiently to the YT2C2 cells than the H7 IgG4 ELB01101 (which results in a EC₅₀ decreased by a factor of 2 compared with H7 IgG4). This is certainly due to the monovalency of the Fab format.

For test [7] the target is unchanged. Kind of test: flow cytometry, percentage of labelled YT2C2 NK cells (2x10^5 cells), antibody 0.39 to 50 nM [panel C]. As to the method:
as §1

Test [8] addresses T1, recombinant human CD160 protein, …. Nature of the test: BLI (repeats Table 8).
The target is the same in test [9]. Nature of the test: BLI, biotinylated CD160 at 10 nM on streptavidin sensor, antibody 3.13-100 nM. This is another data set of the same source.

B1: D12 IgG4 S228P/R409K (antibody)
heavy: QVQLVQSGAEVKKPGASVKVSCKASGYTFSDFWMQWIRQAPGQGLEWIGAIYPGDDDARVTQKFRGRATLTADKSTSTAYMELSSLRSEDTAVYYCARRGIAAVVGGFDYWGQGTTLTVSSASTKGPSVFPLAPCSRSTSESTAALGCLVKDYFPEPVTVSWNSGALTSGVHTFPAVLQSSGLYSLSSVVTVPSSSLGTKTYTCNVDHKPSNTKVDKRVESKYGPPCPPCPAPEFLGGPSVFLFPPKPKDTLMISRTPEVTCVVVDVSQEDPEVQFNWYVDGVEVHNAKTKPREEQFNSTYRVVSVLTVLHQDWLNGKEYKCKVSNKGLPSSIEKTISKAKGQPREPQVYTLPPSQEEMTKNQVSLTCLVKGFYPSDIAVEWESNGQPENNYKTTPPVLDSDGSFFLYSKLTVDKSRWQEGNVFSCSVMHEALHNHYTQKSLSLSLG
light: EIVLTQSPATLSLSPGERATLSCRASQSISNHLHWYQQKPGQAPRLLIKYASQSISGIPARFSGSGSGTDFTLTISSLEPEDFAVYFCQQSNSWPLTFGGGTKVEIKRTVAAPSVFIFPPSDEQLKSGTASVVCLLNNFYPREAKVQWKVDNALQSGNSQESVTEQDSKDSTYSLSSTLTLSKADYEKHKVYACEVTHQGLSSPVTKSFNRGEC
notes: also called ELB01103; H7 IgG4 D12
As to B1, the “Gain in KD/respective IgG” value in [1] was found to be 1.7 fold. Further, in [2], the dissociation constant Kd is 1.52 nM, the off-rate (koff) worked out at 0.000752 s⁻¹ and the on-rate (kon) was 494000 M⁻¹ s⁻¹. Further, in test [3], the “median fluorescence, factor against H7 IgG4 ELB01101” value is 2 fold. In [4], the “Gain in KD/respective IgG” value worked out at 3.1 fold, the Kd came out at 4.2 nM, the off-rate constant (koff) was 0.00122 s⁻¹ and the kon was 292000 M⁻¹ s⁻¹. In addition, in [5], the dissociation constant (Kd) stood at 1.52 nM, the koff was found to be 0.000752 s⁻¹ and the kon was determined as 494000 M⁻¹ s⁻¹. The “EC50, factor against H7 IgG4 (ELB01101)” value in [6] worked out at 10 fold. Further, the “EC50 (read off the curve)” value in [7] is about 3 nM.

B2: D12 IgG4 S228P/R409K/H310A/H435Q (antibody)
heavy: QVQLVQSGAEVKKPGASVKVSCKASGYTFSDFWMQWIRQAPGQGLEWIGAIYPGDDDARVTQKFRGRATLTADKSTSTAYMELSSLRSEDTAVYYCARRGIAAVVGGFDYWGQGTTLTVSSASTKGPSVFPLAPCSRSTSESTAALGCLVKDYFPEPVTVSWNSGALTSGVHTFPAVLQSSGLYSLSSVVTVPSSSLGTKTYTCNVDHKPSNTKVDKRVESKYGPPCPPCPAPEFLGGPSVFLFPPKPKDTLMISRTPEVTCVVVDVSQEDPEVQFNWYVDGVEVHNAKTKPREEQFNSTYRVVSVLTVLAQDWLNGKEYKCKVSNKGLPSSIEKTISKAKGQPREPQVYTLPPSQEEMTKNQVSLTCLVKGFYPSDIAVEWESNGQPENNYKTTPPVLDSDGSFFLYSKLTVDKSRWQEGNVFSCSVMHEALHNQYTQKSLSLSLG
light: B1 light
notes: also called ELB01104; H7 IgG4 D12 S228P/R409K/H310A/H435Q
As to B2, the “Gain in KD/respective IgG” value in test [1] stood at 2 fold. Besides, in [8], the Kd was 1.49 nM, the dissociation rate constant (koff) was found to be 0.000744 s⁻¹ and the on-rate (kon) came out at 499000 M⁻¹ s⁻¹. The “median fluorescence, factor against H7 IgG4 H310A-H435Q ELB01102” value in [3] stood at 2 fold. Moreover, in [4], the “Gain in KD/respective IgG” value amounted to 2.9 fold, the Kd is 5 nM, the koff is 0.00123 s⁻¹ and the on-rate constant (kon) was 244000 M⁻¹ s⁻¹. Further, in test [9], the Kd was determined as 1.49 nM, the dissociation rate constant (koff) stood at 0.000744 s⁻¹ and the kon worked out at 499000 M⁻¹ s⁻¹. Besides, in test [6], the “EC50, factor against H7 IgG4 (ELB01101)” value was 10 fold. The “EC50 (read off the curve)” value in test [7] is about 3 nM.

The term Kd denotes the constant that tells how readily two partners part at equilibrium. What is called koff is the first-order rate constant of dissociation. The term kon denotes the second-order rate constant of association. By EC50 (read off the curve) is commonly meant the concentration giving half of the maximal effect. The low end stands for an effect from little substance, the high end for a need for much substance.
